Test results published in patent US8673848 (Novartis, dated 2014).
Bridges are numbered along the chain shown (N, C = ends). [ ]: non-standard residue; d: D form. The star is where a group is joined. Bip = N[C@@H](Cc1ccc(-c2ccccc2)cc1)C(=O)O; pGlu = O=C1CC[C@@H](C(=O)O)N1; Lauroyl = CCCCCCCCCCCC(=O)*; Nle = CCCC[C@H](N)C(=O)O; Orn = NCCC[C@H](N)C(=O)O; Dab = NCC[C@H](N)C(=O)O

T1: human APJ receptor (hAPJ) (human, UniProt P35414 1-380)
T1 sequence (looked up): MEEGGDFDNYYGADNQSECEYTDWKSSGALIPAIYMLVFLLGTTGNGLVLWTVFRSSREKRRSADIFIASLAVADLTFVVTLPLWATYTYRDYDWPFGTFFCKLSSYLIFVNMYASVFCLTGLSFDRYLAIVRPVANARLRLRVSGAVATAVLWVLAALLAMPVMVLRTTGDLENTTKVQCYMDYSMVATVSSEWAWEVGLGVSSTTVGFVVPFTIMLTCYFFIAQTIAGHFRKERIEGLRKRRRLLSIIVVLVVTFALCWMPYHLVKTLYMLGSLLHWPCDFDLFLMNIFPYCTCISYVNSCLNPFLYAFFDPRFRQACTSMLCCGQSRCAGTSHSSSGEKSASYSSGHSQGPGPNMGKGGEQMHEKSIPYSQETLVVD

B1: Example 26: pE-R-P-R-L-C-H-K-G-P-Nle-C-K(Lauroyl)-OH (peptide)
peptide: [pGlu]RPRLCHKGP[Nle]CK(Lauroyl)-OH
modifications: disulfide 6-12
SMILES: CCCCCCCCCCCC(=O)NCCCC[C@H](NC(=O)[C@@H]1CSSC[C@H](NC(=O)[C@H](CC(C)C)NC(=O)[C@H](CCCNC(=N)N)NC(=O)[C@@H]2CCCN2C(=O)[C@H](CCCNC(=N)N)NC(=O)[C@@H]2CCC(=O)N2)C(=O)N[C@@H](Cc2c[nH]cn2)C(=O)N[C@@H](CCCCN)C(=O)NCC(=O)N2CCC[C@H]2C(=O)N[C@@H](CCCC)C(=O)N1)C(=O)O
B2: Example 27: pE-R-P-R-L-C-K(Lauroyl)-K-G-P-Nle-C-F-OH (peptide)
peptide: [pGlu]RPRLCK(Lauroyl)KGP[Nle]CF-OH
modifications: disulfide 6-12
SMILES: CCCCCCCCCCCC(=O)NCCCC[C@@H]1NC(=O)[C@@H](NC(=O)[C@H](CC(C)C)NC(=O)[C@H](CCCNC(=N)N)NC(=O)[C@@H]2CCCN2C(=O)[C@H](CCCNC(=N)N)NC(=O)[C@@H]2CCC(=O)N2)CSSC[C@@H](C(=O)N[C@@H](Cc2ccccc2)C(=O)O)NC(=O)[C@H](CCCC)NC(=O)[C@@H]2CCCN2C(=O)CNC(=O)[C@H](CCCCN)NC1=O
B3: Example 30: pE-r-P-R-L-C-H-K-G-P-Nle-C-F-OH (peptide)
peptide: [pGlu][dR]PRLCHKGP[Nle]CF-OH
modifications: disulfide 6-12
SMILES: CCCC[C@@H]1NC(=O)[C@@H]2CCCN2C(=O)CNC(=O)[C@H](CCCCN)NC(=O)[C@H](Cc2c[nH]cn2)NC(=O)[C@@H](NC(=O)[C@H](CC(C)C)NC(=O)[C@H](CCCNC(=N)N)NC(=O)[C@@H]2CCCN2C(=O)[C@@H](CCCNC(=N)N)NC(=O)[C@@H]2CCC(=O)N2)CSSC[C@@H](C(=O)N[C@@H](Cc2ccccc2)C(=O)O)NC1=O
B4: Example 31: pE-F-P-R-L-C-H-K-G-P-Nle-C-F-OH (peptide)
peptide: [pGlu]FPRLCHKGP[Nle]CF-OH
modifications: disulfide 6-12
SMILES: CCCC[C@@H]1NC(=O)[C@@H]2CCCN2C(=O)CNC(=O)[C@H](CCCCN)NC(=O)[C@H](Cc2c[nH]cn2)NC(=O)[C@@H](NC(=O)[C@H](CC(C)C)NC(=O)[C@H](CCCNC(=N)N)NC(=O)[C@@H]2CCCN2C(=O)[C@H](Cc2ccccc2)NC(=O)[C@@H]2CCC(=O)N2)CSSC[C@@H](C(=O)N[C@@H](Cc2ccccc2)C(=O)O)NC1=O
B5: Example 32: pE-E-P-R-L-C-H-K-G-P-Nle-C-F-OH (peptide)
peptide: [pGlu]EPRLCHKGP[Nle]CF-OH
modifications: disulfide 6-12
SMILES: CCCC[C@@H]1NC(=O)[C@@H]2CCCN2C(=O)CNC(=O)[C@H](CCCCN)NC(=O)[C@H](Cc2c[nH]cn2)NC(=O)[C@@H](NC(=O)[C@H](CC(C)C)NC(=O)[C@H](CCCNC(=N)N)NC(=O)[C@@H]2CCCN2C(=O)[C@H](CCC(=O)O)NC(=O)[C@@H]2CCC(=O)N2)CSSC[C@@H](C(=O)N[C@@H](Cc2ccccc2)C(=O)O)NC1=O
B6: Example 33: pE-R-p-R-L-C-H-K-G-P-Nle-C-F-OH (peptide)
peptide: [pGlu]R[dP]RLCHKGP[Nle]CF-OH
modifications: disulfide 6-12
SMILES: CCCC[C@@H]1NC(=O)[C@@H]2CCCN2C(=O)CNC(=O)[C@H](CCCCN)NC(=O)[C@H](Cc2c[nH]cn2)NC(=O)[C@@H](NC(=O)[C@H](CC(C)C)NC(=O)[C@H](CCCNC(=N)N)NC(=O)[C@H]2CCCN2C(=O)[C@H](CCCNC(=N)N)NC(=O)[C@@H]2CCC(=O)N2)CSSC[C@@H](C(=O)N[C@@H](Cc2ccccc2)C(=O)O)NC1=O
B7: Example 34: pE-R-K-R-L-C-H-K-G-P-Nle-C-F-OH (peptide)
peptide: [pGlu]RKRLCHKGP[Nle]CF-OH
modifications: disulfide 6-12
SMILES: CCCC[C@@H]1NC(=O)[C@@H]2CCCN2C(=O)CNC(=O)[C@H](CCCCN)NC(=O)[C@H](Cc2c[nH]cn2)NC(=O)[C@@H](NC(=O)[C@H](CC(C)C)NC(=O)[C@H](CCCNC(=N)N)NC(=O)[C@H](CCCCN)NC(=O)[C@H](CCCNC(=N)N)NC(=O)[C@@H]2CCC(=O)N2)CSSC[C@@H](C(=O)N[C@@H](Cc2ccccc2)C(=O)O)NC1=O
B8: Example 35: pE-R-D-R-L-C-H-K-G-P-Nle-C-F-OH (peptide)
peptide: [pGlu]RDRLCHKGP[Nle]CF-OH
modifications: disulfide 6-12
SMILES: CCCC[C@@H]1NC(=O)[C@@H]2CCCN2C(=O)CNC(=O)[C@H](CCCCN)NC(=O)[C@H](Cc2c[nH]cn2)NC(=O)[C@@H](NC(=O)[C@H](CC(C)C)NC(=O)[C@H](CCCNC(=N)N)NC(=O)[C@H](CC(=O)O)NC(=O)[C@H](CCCNC(=N)N)NC(=O)[C@@H]2CCC(=O)N2)CSSC[C@@H](C(=O)N[C@@H](Cc2ccccc2)C(=O)O)NC1=O
B9: Example 36: pE-R-P-F-L-C-H-K-G-P-Nle-C-F-OH (peptide)
peptide: [pGlu]RPFLCHKGP[Nle]CF-OH
modifications: disulfide 6-12
SMILES: CCCC[C@@H]1NC(=O)[C@@H]2CCCN2C(=O)CNC(=O)[C@H](CCCCN)NC(=O)[C@H](Cc2c[nH]cn2)NC(=O)[C@@H](NC(=O)[C@H](CC(C)C)NC(=O)[C@H](Cc2ccccc2)NC(=O)[C@@H]2CCCN2C(=O)[C@H](CCCNC(=N)N)NC(=O)[C@@H]2CCC(=O)N2)CSSC[C@@H](C(=O)N[C@@H](Cc2ccccc2)C(=O)O)NC1=O
B10: Example 37: pE-R-P-R-K-C-H-K-G-P-Nle-C-F-OH (peptide)
peptide: [pGlu]RPRKCHKGP[Nle]CF-OH
modifications: disulfide 6-12
SMILES: CCCC[C@@H]1NC(=O)[C@@H]2CCCN2C(=O)CNC(=O)[C@H](CCCCN)NC(=O)[C@H](Cc2c[nH]cn2)NC(=O)[C@@H](NC(=O)[C@H](CCCCN)NC(=O)[C@H](CCCNC(=N)N)NC(=O)[C@@H]2CCCN2C(=O)[C@H](CCCNC(=N)N)NC(=O)[C@@H]2CCC(=O)N2)CSSC[C@@H](C(=O)N[C@@H](Cc2ccccc2)C(=O)O)NC1=O
B11: Example 38: pE-R-P-R-L-C-H-E-G-P-Nle-C-F-OH (peptide)
peptide: [pGlu]RPRLCHEGP[Nle]CF-OH
modifications: disulfide 6-12
SMILES: CCCC[C@@H]1NC(=O)[C@@H]2CCCN2C(=O)CNC(=O)[C@H](CCC(=O)O)NC(=O)[C@H](Cc2c[nH]cn2)NC(=O)[C@@H](NC(=O)[C@H](CC(C)C)NC(=O)[C@H](CCCNC(=N)N)NC(=O)[C@@H]2CCCN2C(=O)[C@H](CCCNC(=N)N)NC(=O)[C@@H]2CCC(=O)N2)CSSC[C@@H](C(=O)N[C@@H](Cc2ccccc2)C(=O)O)NC1=O
B12: Example 39: pE-R-P-R-L-C-H-K-D-P-Nle-C-F-OH (peptide)
peptide: [pGlu]RPRLCHKDP[Nle]CF-OH
modifications: disulfide 6-12
SMILES: CCCC[C@@H]1NC(=O)[C@@H]2CCCN2C(=O)[C@H](CC(=O)O)NC(=O)[C@H](CCCCN)NC(=O)[C@H](Cc2c[nH]cn2)NC(=O)[C@@H](NC(=O)[C@H](CC(C)C)NC(=O)[C@H](CCCNC(=N)N)NC(=O)[C@@H]2CCCN2C(=O)[C@H](CCCNC(=N)N)NC(=O)[C@@H]2CCC(=O)N2)CSSC[C@@H](C(=O)N[C@@H](Cc2ccccc2)C(=O)O)NC1=O
B13: Example 40: pE-R-P-E-L-C-H-K-G-P-Nle-C-F-OH (peptide)
peptide: [pGlu]RPELCHKGP[Nle]CF-OH
modifications: disulfide 6-12
SMILES: CCCC[C@@H]1NC(=O)[C@@H]2CCCN2C(=O)CNC(=O)[C@H](CCCCN)NC(=O)[C@H](Cc2c[nH]cn2)NC(=O)[C@@H](NC(=O)[C@H](CC(C)C)NC(=O)[C@H](CCC(=O)O)NC(=O)[C@@H]2CCCN2C(=O)[C@H](CCCNC(=N)N)NC(=O)[C@@H]2CCC(=O)N2)CSSC[C@@H](C(=O)N[C@@H](Cc2ccccc2)C(=O)O)NC1=O
B14: Example 41: pE-R-P-R-(4-PhF)-C-H-K-G-P-Nle-C-F-OH (peptide)
peptide: [pGlu]RPR[Bip]CHKGP[Nle]CF-OH
modifications: disulfide 6-12
SMILES: CCCC[C@@H]1NC(=O)[C@@H]2CCCN2C(=O)CNC(=O)[C@H](CCCCN)NC(=O)[C@H](Cc2c[nH]cn2)NC(=O)[C@@H](NC(=O)[C@H](Cc2ccc(-c3ccccc3)cc2)NC(=O)[C@H](CCCNC(=N)N)NC(=O)[C@@H]2CCCN2C(=O)[C@H](CCCNC(=N)N)NC(=O)[C@@H]2CCC(=O)N2)CSSC[C@@H](C(=O)N[C@@H](Cc2ccccc2)C(=O)O)NC1=O
B15: Example 42: pE-R-P-R-D-C-H-K-G-P-Nle-C-F-OH (peptide)
peptide: [pGlu]RPRDCHKGP[Nle]CF-OH
modifications: disulfide 6-12
SMILES: CCCC[C@@H]1NC(=O)[C@@H]2CCCN2C(=O)CNC(=O)[C@H](CCCCN)NC(=O)[C@H](Cc2c[nH]cn2)NC(=O)[C@@H](NC(=O)[C@H](CC(=O)O)NC(=O)[C@H](CCCNC(=N)N)NC(=O)[C@@H]2CCCN2C(=O)[C@H](CCCNC(=N)N)NC(=O)[C@@H]2CCC(=O)N2)CSSC[C@@H](C(=O)N[C@@H](Cc2ccccc2)C(=O)O)NC1=O

molecular target: T1, human APJ receptor (hAPJ); assay: cell-based or functional assay

| Binder | hAPJ Ca2+ Flux EC50 [nM] |
| --- | --- |
| B1 | 29.8 |
| B2 | 65.5 |
| [pGlu]RPCLCCKGP[Nle]CF-OH (disulfide 6-12, 4-7) [Example 28: pE-R-P-C-L-C-C-K-G-P-Nle-C-F-OH] | 5.68 |
| [pGlu]RCRLCCKGP[Nle]CF-OH (disulfide 6-12, 3-7) [Example 29: pE-R-C-R-L-C-C-K-G-P-Nle-C-F-OH] | 4.33 |
| [pGlu]RPRL[Orn]HFGP[Nle]D-Phenethylamine (lactam 6-12) [Example 3: pE-R-P-R-L-Orn-H-F-G-P-Nle-D-Phenethylamine] | 1010 |
| B3 | 6.05 |
| B4 | 84.1 |
| B5 | 518 |
| B6 | 8.1 |
| B7 | 3.21 |
| B8 | 11.1 |
| B9 | 7.36 |
| B10 | 1.4 |
| B11 | 182 |
| B12 | 8.2 |
| [pGlu]RPRL[Dab]HFGP[Nle]D-Phenethylamine (lactam 6-12) [Example 4: pE-R-P-R-L-Dab-H-F-G-P-Nle-D-Phenethylamine] | 747 |
| B13 | 7.99 |
| B14 | 6.91 |
| B15 | 92.8 |
